The values that follow come from patent US20220119793A1.

For this test, the target named is α-thrombin. The test can be described thus: cell-based or functional assay.

“human heparin cofactor II 60-sTyr-73-sTyr (from UniProt P05546 20-499)”: the maximal second-order rate constant (k2) of thrombin inhibition, at ~20 µg/mL heparin is 5e+06 M⁻¹ s⁻¹.
